From US20200046796A1 (TECHNION RESEARCH AND DEVELOPMENT FOUNDATION, published 2020)
One block for each binder: values may come before it.

Legend:
[1] = biological target: T1, α-Catenin (endogenous, from HaCaT cells), P35221
T1 chain: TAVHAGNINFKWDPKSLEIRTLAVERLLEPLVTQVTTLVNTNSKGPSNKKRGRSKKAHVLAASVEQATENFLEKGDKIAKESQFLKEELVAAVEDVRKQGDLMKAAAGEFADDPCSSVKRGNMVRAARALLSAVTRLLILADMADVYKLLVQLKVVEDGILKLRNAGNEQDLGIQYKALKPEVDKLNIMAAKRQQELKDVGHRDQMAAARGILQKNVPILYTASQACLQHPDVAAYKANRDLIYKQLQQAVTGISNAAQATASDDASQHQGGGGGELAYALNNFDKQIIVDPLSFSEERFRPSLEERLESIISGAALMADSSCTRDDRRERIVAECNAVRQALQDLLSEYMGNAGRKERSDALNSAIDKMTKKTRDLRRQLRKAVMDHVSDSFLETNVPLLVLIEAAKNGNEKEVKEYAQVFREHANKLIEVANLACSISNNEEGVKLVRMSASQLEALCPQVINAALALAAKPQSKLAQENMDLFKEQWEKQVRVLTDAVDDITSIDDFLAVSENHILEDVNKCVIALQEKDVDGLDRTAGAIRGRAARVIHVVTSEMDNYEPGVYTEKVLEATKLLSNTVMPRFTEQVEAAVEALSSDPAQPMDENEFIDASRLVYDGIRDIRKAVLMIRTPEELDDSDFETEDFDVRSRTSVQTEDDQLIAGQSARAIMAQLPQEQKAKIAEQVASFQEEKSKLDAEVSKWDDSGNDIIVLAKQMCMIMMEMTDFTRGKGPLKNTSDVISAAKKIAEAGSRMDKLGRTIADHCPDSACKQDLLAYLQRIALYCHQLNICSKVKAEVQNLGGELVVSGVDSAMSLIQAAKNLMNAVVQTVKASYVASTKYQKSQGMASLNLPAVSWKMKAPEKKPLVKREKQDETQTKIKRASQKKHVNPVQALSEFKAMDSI

[2] = biological target: T2, Recombinant human α-Catenin protein
T2 chain: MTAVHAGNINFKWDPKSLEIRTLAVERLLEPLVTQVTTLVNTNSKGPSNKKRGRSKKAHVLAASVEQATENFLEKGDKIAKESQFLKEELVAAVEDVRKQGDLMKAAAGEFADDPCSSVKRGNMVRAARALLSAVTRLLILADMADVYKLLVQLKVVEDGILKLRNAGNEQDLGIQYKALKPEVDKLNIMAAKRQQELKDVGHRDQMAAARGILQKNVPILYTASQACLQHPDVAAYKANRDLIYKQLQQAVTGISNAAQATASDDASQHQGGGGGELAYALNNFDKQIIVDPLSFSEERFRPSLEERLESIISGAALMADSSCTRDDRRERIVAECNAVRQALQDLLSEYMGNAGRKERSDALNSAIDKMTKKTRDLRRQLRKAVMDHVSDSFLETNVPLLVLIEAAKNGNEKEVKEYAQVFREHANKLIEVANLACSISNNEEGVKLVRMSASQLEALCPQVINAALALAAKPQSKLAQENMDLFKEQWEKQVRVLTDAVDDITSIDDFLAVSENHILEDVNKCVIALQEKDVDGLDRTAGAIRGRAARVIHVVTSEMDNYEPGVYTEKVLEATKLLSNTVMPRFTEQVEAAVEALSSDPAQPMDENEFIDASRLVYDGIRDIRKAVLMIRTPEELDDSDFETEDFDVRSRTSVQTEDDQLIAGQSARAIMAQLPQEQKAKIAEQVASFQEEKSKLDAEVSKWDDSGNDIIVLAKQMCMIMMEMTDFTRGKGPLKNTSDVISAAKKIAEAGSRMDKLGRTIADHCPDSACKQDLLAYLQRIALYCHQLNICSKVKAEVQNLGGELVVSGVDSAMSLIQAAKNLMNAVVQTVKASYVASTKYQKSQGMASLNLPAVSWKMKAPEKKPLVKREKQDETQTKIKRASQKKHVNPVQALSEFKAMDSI

[3] = biological target: recombinant mouse H3/H4 heterodimer, P62806
[4] = biological target: Yes associated protein 1 (YAP) (endogenous, from mouse dorsal skin) (mouse, UniProt P46938 1-488, limits assumed); test: co-immunoprecipitation of endogenous proteins from mouse skin, Western blot
Sequence of Yes associated protein 1 (YAP) (endogenous, from mouse dorsal skin) (P46938 whole entry): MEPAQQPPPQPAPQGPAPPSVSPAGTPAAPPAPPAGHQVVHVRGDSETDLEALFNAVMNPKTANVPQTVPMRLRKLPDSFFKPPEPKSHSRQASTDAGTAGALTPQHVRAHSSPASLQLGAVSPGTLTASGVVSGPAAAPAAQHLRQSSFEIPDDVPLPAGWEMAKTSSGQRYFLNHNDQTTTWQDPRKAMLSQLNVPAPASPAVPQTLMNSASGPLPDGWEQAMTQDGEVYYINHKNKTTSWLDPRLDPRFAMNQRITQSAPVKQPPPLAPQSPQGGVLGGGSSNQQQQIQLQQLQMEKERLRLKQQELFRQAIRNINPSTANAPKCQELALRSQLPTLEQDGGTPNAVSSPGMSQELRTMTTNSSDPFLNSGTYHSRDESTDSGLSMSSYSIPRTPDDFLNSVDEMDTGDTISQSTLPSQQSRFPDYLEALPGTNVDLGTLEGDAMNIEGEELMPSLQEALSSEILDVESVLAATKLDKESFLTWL

B1: recombinant human active caspase-3 (protein)
chain: SGISLDNSYKMDYPEMGLCIIINNKNFHKSTGMTSRSGTDVDAANLRETFRNLKYEVRNKNDLTREEIVELMRDVSKEDHSKRSSFVCVLLSHGEEGIIFGTNGPVDLKKITNFFRGDRCRSLTGKPKLFIIQACRGTELDCGIETDSGVDDDMACHKIPVEADFLYAYSTAPGYYSWRNSKDGSWFIQSLCAMLKQYADKLEFMHILTRVNRKVATEFESFSFDATFHAKKQIPCIVSMLTKELYFYH
cleavage in HaCaT protein lysate, Western blot with antibodies for the C and N termini of α-Catenin [1]: addition of cleaved Caspase-3 results in a major decrease in the level of full-length α-Catenin
release of 14-3-3 from α-Catenin pull-down complexes after in vitro cleavage, Western blot [1]: Caspase-3-mediated cleavage facilitates the release of 14-3-3 from α-Catenin
in vitro cleavage assay, SDS-electrophoresis and Coomassie staining [2]: a dramatic decrease in the levels of full length α-Catenin (FIG. 4M) (Caspase-3 cleaved α-Catenin), giving rise to two novel bands at a molecular weight of ˜14 kDa and ˜17 kDa
in vitro cleavage assay, Coomassie staining [3]: Caspase-3 was not able to cleave either histones H2A/H2B or H3/H4

binding result [4]: no binding
B2: activated (cleaved) Caspase-3 (endogenous, from mouse dorsal skin) (enzyme, UniProt P70677 29-277, looked up)
chain: SGIYLDSSYKMDYPEMGICIIINNKNFHKSTGMSSRSGTDVDAANLRETFMGLKYQVRNKNDLTREDILELMDSVSKEDHSKRSSFVCVILSHGDEGVIYGTNGPVELKKLTSFFRGDYCRSLTGKPKLFIIQACRGTELDCGIETDSGTDEEMACQKIPVEADFLYAYSTAPGYYSWRNSKDGSWFIQSLCSMLKLYAHKLEFMHILTRVNRKVATEFESFSLDSTFHAKKQIPCIVSMLTKELYFYH
notes: also called CP3
